Test results from patent US20110034670A1.

Assays:
Lck [1] = assay: steady-state kinetics, ATP-binding site, after UV exposure
Lck [2] = assay: steady-state kinetics, radioactive kinase assay; ATP-binding site
Src tyrosine kinase [3] = assay: as above
Src tyrosine kinase [4] = assay: steady-state kinetics, radioactive kinase assay; ATP-binding site of Src
Src tyrosine kinase [5] = assay: steady-state kinetics, Ki against Km of ATP
Lck [6] = assay: steady-state kinetics, radioactive kinase assay
Lck [7] = assay: steady-state kinetics, radioactive kinase assay; ATP-binding site of Lck
Src tyrosine kinase [8] = assay: radioactive Src kinase assay, catalytic activity inhibition

Sequence of Lck (D3DPP8 whole entry): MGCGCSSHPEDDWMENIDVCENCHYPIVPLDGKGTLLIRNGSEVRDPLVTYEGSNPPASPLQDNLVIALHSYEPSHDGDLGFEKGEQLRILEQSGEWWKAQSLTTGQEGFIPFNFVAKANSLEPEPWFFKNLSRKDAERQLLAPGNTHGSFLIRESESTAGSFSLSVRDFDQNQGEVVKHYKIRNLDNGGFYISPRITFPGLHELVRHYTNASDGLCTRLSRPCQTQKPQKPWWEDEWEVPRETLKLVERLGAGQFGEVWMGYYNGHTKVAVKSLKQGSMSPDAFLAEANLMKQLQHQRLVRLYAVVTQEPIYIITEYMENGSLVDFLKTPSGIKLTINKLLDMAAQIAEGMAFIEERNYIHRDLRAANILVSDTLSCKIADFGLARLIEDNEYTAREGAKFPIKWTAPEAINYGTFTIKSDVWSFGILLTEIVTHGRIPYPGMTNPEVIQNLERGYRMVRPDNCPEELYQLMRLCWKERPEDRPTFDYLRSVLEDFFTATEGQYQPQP

ATP-1,13-Trioxa-SA-pTyr-γ-p-azidoGlu-Glu-Ile-OH (7) (peptide)
Ki (Lck [1]): 29.8 µM | Ki (Lck [2]): 30 µM | Ki (Src tyrosine kinase [3]): 2.7 µM | Ki (Src tyrosine kinase [4]): 1.7 to 2.6 µM

ATP-1,13-Trioxa-Suc-pTyr-Glu-Glu-Ile-OH (5) (peptide)
fold more potent than ATP alone (Src tyrosine kinase [5]): 44 fold | fold better binding affinity than ATP (Lck [6]): 3.9 fold | Ki (Lck [7]): 25.3 µM

H2N-1,13-Trioxa-Suc-pTyr-Glu-Glu-Ile-OH (16) (peptide)
Ki (Src tyrosine kinase [8]): 608 µM
